Measured values as given in PMC5768779.

Tested on: USP48 (isoform 1)
Assay: EMSA
Conditions: 50 nM NCP, estimated from first distinct shift, higher species above 4 uM, EMSA: 50 nM NCP, native gel, SPR: immobilized nucleosomes, 10 successive USP48 injections, one-phase binding fit, binding buffer, pH and temperature not in …

In the case of “NCP H2A-BRCA1ub (multi-monoubiquitinated, Widom 601, 147 bp)”, the Kd (histone H2A multi-monoubiquitinated at the C-terminal BRCA1 site (K125/K127/K129), DNA unmodified) is reported as 1000 nM.
NCP unmodified (Widom 601, 147 bp) was tested, and the Kd was 1000 nM.
